Measured values taken from patent US20100009014A1, “Use of composition for manufacture of medicant and method for inhibiting formation of body fat” (Maxluck Biotechnology Corp., priority 2008, published 2010).

Experiment: Epididymal fat weight and body weight, lactoferrin vs trivalent chromium vs combination (Test Example 5)
Type: in vivo, C57BL/6JNarl mice
Conditions: fed 7 weeks; for Body weight / Epididymal fat weight: high-fat diet
Procedure: The C57BL/6JNarl mice (N=70) are fed with a mouse diet (high-fat Rodent TestDiet, PMI Nutrition International Inc., MO, U.S.A.; 67% of calories provided by fat). The C57BL/6JNarl mice are randomly divided into seven groups and there are ten mice in each group. In one experimental group, the mice are fed with the mouse diet mixed with lactoferrin (NZMP lactoferrin, New Zealand, low dose: 40 mg/kg BW/day, high dose: 80 mg/kg BW/day). In another experimental group, the mice are fed with the mouse diet mixed with trivalent chromium (chromium (III) chloride hexahydrate, low dose: 40 μg/kg BW/day Cr^3+, high dose: 80 μg/kg BW/day Cr^3+). In yet another experimental group, the mice are fed with the mouse diet mixed with a lactoferrin/trivalent chromium composition (low dose: lactoferrin of 40 mg/kg BW/day with Cr^3+ of 40 μg/kg BW/day, high dose: lactoferrin of 80 mg/kg BW/day with Cr^3+ of 80 μg/kg BW/day). In the control group, the mice are fed with the mouse diet containing no other additive. The C57BL/6JNarl mice aged 8 weeks are fed for 7 weeks and then sacrificed to measure the weight of Epididymal fat and body weight, as shown in Table 5.
Accordingly, it can be known that the lactoferrin/trivalent chromium composition provides more significant efficiency in comparison to single lactoferrin or trivalent chromium.

[1] = High dose (lactoferrin 80 mg/kg BW/day and/or Cr3+ 80 μg/kg BW/day)
[2] = Low dose (lactoferrin 40 mg/kg BW/day and/or Cr3+ 40 μg/kg BW/day)

B1: Lactoferrin: NZMP lactoferrin, New Zealand; glycoprotein capable of binding metal ions, given alone as comparison (protein, UniProt P24627 20-708, looked up)
Lactotransferrin: APRKNVRWCTISQPEWFKCRRWQWRMKKLGAPSITCVRRAFALECIRAIAEKKADAVTLDGGMVFEAGRDPYKLRPVAAEIYGTKESPQTHYYAVAVVKKGSNFQLDQLQGRKSCHTGLGRSAGWIIPMGILRPYLSWTESLEPLQGAVAKFFSASCVPCIDRQAYPNLCQLCKGEGENQCACSSREPYFGYSGAFKCLQDGAGDVAFVKETTVFENLPEKADRDQYELLCLNNSRAPVDAFKECHLAQVPSHAVVARSVDGKEDLIWKLLSKAQEKFGKNKSRSFQLFGSPPGQRDLLFKDSALGFLRIPSKVDSALYLGSRYLTTLKNLRETAEEVKARYTRVVWCAVGPEEQKKCQQWSQQSGQNVTCATASTTDDCIVLVLKGEADALNLDGGYIYTAGKCGLVPVLAENRKSSKHSSLDCVLRPTEGYLAVAVVKKANEGLTWNSLKDKKSCHTAVDRTAGWNIPMGLIVNQTGSCAFDEFFSQSCAPGADPKSRLCALCAGDDQGLDKCVPNSKEKYYGYTGAFRCLAEDVGDVAFVKNDTVWENTNGESTADWAKNLNREDFRLLCLDGTRKPVTEAQSCHLAVAPNHAVVSRSDRAAHVKQVLLHQQALFGKNGKNCPDKFCLFKSETKNLLFNDNTECLAKLGGRPTYEEYLGTEYVTAIANLKKCSTSPLLEACAFLTR
Which Body weight [1] does the source give for B1 here?
The Body weight was 27.9 ± 1.37 g.

What about the Epididymal fat weight [1] of the same molecule?
The Epididymal fat weight was 0.82 ± 0.2 g.

What about the Body weight [2] of the same molecule?
Its Body weight is 27.7 ± 2.19 g.

And the Epididymal fat weight [2]?
Its Epididymal fat weight is 0.72 ± 0.28 g.

What about the “Epididymal fat weight and body weight vs control group (in words)” value of the same molecule?
Its value is “cannot achieve significant efficiency”.
